Substitutions are numbered along the chain they refer to. Names may count otherwise. Read-outs that look alike come from different tables or passages of the source. Values belong to the binder of their own block, whether it stands above or below them.
Tests used:
[1] = target: T1, human TSLPR (on cells) (human, UniProt Q9HC73 23-371); test: cell-based or functional assay
T1 sequence: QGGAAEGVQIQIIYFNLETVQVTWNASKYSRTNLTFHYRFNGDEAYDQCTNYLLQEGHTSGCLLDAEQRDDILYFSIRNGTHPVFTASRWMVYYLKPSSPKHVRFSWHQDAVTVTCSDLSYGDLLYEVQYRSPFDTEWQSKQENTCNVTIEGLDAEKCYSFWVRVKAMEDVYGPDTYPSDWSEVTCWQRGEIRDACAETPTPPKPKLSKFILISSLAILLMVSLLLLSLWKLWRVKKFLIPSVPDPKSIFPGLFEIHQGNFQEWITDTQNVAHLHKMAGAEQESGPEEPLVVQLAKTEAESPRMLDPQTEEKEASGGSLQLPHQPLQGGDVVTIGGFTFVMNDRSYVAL

[2] = target: T2, Recombinant human TSLPR-Fc (human, UniProt Q9HC73 23-231); test: blocking ELISA: antibody on coated TSLPR-Fc, then TSLP + IL7Rα-Fc; TSLP binding detected
T2 construct: also called recombinant human soluble TSLPR-Fc fusion protein; not shown: Fc part
T2 sequence: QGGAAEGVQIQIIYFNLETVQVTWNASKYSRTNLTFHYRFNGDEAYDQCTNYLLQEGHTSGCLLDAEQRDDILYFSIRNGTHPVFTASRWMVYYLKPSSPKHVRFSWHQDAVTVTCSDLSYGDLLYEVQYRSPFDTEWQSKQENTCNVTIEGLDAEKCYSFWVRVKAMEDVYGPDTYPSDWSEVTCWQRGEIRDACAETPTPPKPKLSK
Method: Recombinant human TSLPR-Fc was coated to 96-well Nunc Maxisorp™ plate wells by incubating 50 μl of a 0.2 μg/ml solution of TSLPR-Fc in PBS per well for 1 h at RT. Subsequently the wells were blocked with 1% Crotein™ C in PBS (blocking buffer) for 1 h at RT, followed by two washes with wash buffer (ice-cold PBS/0.05% TWEEN® 20). 50 μl of anti-TSLPR antibody solution (antibodies and according to WO 2007/112146) were then added to the wells and incubated for 2 h at 4° C., followed by four wash steps. After addition of 50 μl of a mixture of human recombinant TSLP (12.5 ng/ml) and human recombinant IL7Rα-Fc (1 μg/ml) in blocking buffer, the plate was shaken for 1 h at 4° C., followed by further four wash steps. TSLP binding was detected by incubation with 50 μl of biotinylated anti-TSLP antibody (0.08 μg/ml in blocking buffer), followed by four washes and incubation with 50 μl of streptavidin-HRP (0.25 μg/ml in blocking buffer) per well. After another four washing steps, color was developed by incubation with 50 μl of 3,3,5,5-Tetramethylbenzidine substrate, followed by addition of 50 μl of 1 N HCl. Absorbance was read out at 450 and 620 nm.

[3] = target: TSLPR-ECD (extracellular domain of TSLPR) (human) (UniProt Q9HC73); test: SPR (Biacore 3000), antibody captured by anti-IgG, TSLPR-ECD as analyte, 25 °C, 1:1 Langmuir fit
[4] = target: T3, Cynomolgous TSLPR (on HEK293 cells) (Cynomolgous monkey); test: FACS on HEK293 cells transiently transfected with Cynomolgous TSLPR
T3 construct: also called Cyno-TSLPR-HEK293; HEK-Cyno-TSLPR
T3 chain: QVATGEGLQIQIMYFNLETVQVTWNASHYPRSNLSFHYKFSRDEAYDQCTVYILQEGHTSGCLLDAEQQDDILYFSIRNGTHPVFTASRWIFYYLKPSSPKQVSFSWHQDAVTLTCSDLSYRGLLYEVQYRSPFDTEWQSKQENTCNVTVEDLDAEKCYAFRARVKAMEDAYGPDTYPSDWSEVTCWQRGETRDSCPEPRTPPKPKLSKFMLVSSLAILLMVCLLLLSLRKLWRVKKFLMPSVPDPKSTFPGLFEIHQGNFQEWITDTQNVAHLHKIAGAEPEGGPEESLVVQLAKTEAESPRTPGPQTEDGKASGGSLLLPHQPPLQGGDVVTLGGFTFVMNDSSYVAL
Method: (§1) BA/F3-TSLPR/IL7Rα or Cyno-TSLPR-HEK293 cells were starved from TSLP overnight, harvested by centrifugation, washed once in PBS and re-suspended in FACS buffer (PBS/5% FCS) at 10⁶/ml. 100 μl of cell suspension were incubated in a 96-well round-bottom plate well together with 100 μl of anti-TSLPR antibody solution for 45 minutes on ice. After three washes with FACS buffer, cells were re-suspended in a solution of PE-coupled anti-hamster-F(ab)2 (Dianova, Hamburg, Germany, #127-115-160) (1:200 in FACS buffer) and incubated for 30 minutes on ice. After three further washes cells were re-suspended in 200 μl of FACS buffer and measured on a FACSCanto™ flow cytometer (10,000 cells, flow rate 3).

[5] = target: T4, TSLPR-ECD (extracellular domain of TSLPR) (human, UniProt Q9HC73 23-231); test: SPR (Biacore 3000), antibody captured by anti-IgG, TSLPR-ECD as analyte, 25 °C, 1:1 Langmuir fit
T4 construct: Obtained by cleavage of a TSLPR-Fc fusion protein expressed in HEK cells; also called analyte 2
T4 sequence: T2 sequence
Method: The binding properties of monoclonal anti-TSLPR antibodies and according to WO 2007/112146 were analyzed by surface plasmon resonance (SPR) technology using a Biacore 3000 instrument. The affinity was determined using an assay setup with capturing antibodies. These capturing antibodies (goat anti-human-IgG, goat anti-hamster-IgG) were immobilized on the surface of a CM5 biosensorchip using amine coupling chemistry. The capturing antibodies were injected in sodium acetate buffer, pH 5.0 at a concentration of 5 μg/ml aiming for a surface density of approx 1000 RU. Remaining reactive groups were inactivated by an injection of 1 M ethanolamine/HCl pH 8.5. Running buffer was HBS-P. The anti-TSLPR antibodies (analyte 1) were diluted in HBS-P to a concentration of 25 nM and injected at a flow rate of 5 μl/min for 3 minutes, resulting in a binding signal of 100-400RU dependent on the antibodies applied. The extracellular domain of TSLPR, TSLPR-ECD, obtained by cleavage of a TSLPR-Fc fusion protein expressed in HEK cells (analyte 2), was injected in concentrations ranging from 0-50 nM at a flow rate of 20 μl/min. The contact time (association phase) was 3 min for TSLPR followed by 5 minutes of dissociation. Regeneration solution 10 mM glycine HCl pH1.5 or 10 mM glycine HCl pH1.7 was injected twice at a flow rate of 10 μl/min for 1 min to remove any bound protein after each binding cycle. All interactions were performed at 25° C. (standard temperature). Signals were detected at a detection rate of 1 signal/second. The signals from a reference flow cell (FC1: same capturing antibody and addition of control antibody) and from blank buffer injections were subtracted and data were evaluated. All binding curves were fitted to a 1:1 Langmuir binding model. Association rate constant (ka), dissociation rate constant (kd) and the dissociation equilibrium constant (KD) were calculated accordingly.

[6] = target: T1, human TSLPR (on cells); test: cell-based or functional assay; remark: listed apart in the source
[7] = target: T1, human TSLPR (on cells); test: FACS on BA/F3 cells stably overexpressing human TSLPR and IL-7Rα
Method: as §1

[8] = target: T1, human TSLPR (on cells); test: cell-based or functional assay; remark: listed apart in the source

IC50 proliferation (example 4) [1]: 0.084 µg/mL
IC50 [2]: 0.0152 µg/mL
Kd [3]: 2.97 nM
B1: 1D6.C9 (WO2007/112146) (antibody, from another filing, V domains shown)
VH: QIQLGQSGPELKKPGETVKISCKASGYTFTTYGMSWVKQAPGKGLQWMGWINTYSGVPRYADDFKGRFAFSLETSASTAYLQIYNLKNEDTATYFCTREGFITTVVGAAGRFVYWGQGTLVTVSA
VL: DIVMTQSHKFMSTSVGDRVSITCKASQDVGTAVAWYQQKPGQSPKLLIYWASTRHTGVPDRFTGSGSGTDFTLTLNNVQSEDLADYFCQQYSTYPTFGSGTKLELKR

EC50 [4]: 0.0118 µg/mL
Kd [5]: 0.25 nM
IC50 DC assay (example 7), TARC secretion [6]: 0.129 µg/mL
IC50 proliferation (example 4) [6]: 0.026 µg/mL
IC50 [2]: 0.0088 µg/mL
EC50 [7]: 0.0156 µg/mL
B2: TSLPR-012 (hamster) (antibody, V domains shown)
VH: QIQLQESGPGLVKPSQSLSLTCSVTGFSITTSGYYWTWIRQFPGKKLEWMGYIGYNSKTYYNPSLKSRISITRDTSKNQFLLHLNSVTTEDTATYYCARSLYGGYKDAFDSWGQGTLVTVSS
VL: DVVLTQTPATLSAIPGERVTMTCKASQSIGTSLHWYQHRPNETPRLLIKFASRSITGIPSRFSGSGSGTDFTLGINNLEAEDFAIYYCQQSPGFPPTFGSGTKLEINR
notes: Parent Armenian hamster monoclonal antibody; the hamster constant regions are not; also called TSLP-012; hamster antibody TSLPR-012

EC50 [4]: 0.0103 µg/mL
Kd [5]: 0.6 nM
IC50 DC assay (example 7), TARC secretion [6]: 0.023 µg/mL
IC50 proliferation (example 4) [6]: 0.025 µg/mL
IC50 [2]: 0.0136 µg/mL
EC50 [7]: 0.0149 µg/mL
B3: TSLPR-012_189, CDR grafted (antibody, V domains shown)
VH: QVQLVESGGGLVKPGGSLRLSCAASGFSITTSGYYWTWIRQFPGKGLEWMGYIGYNSKTYYNPALKSRITISRDNAKNSLYLQMNSLRAEDTAVYYCARSLYGGYKDAFDSWGQGTLVTVSS
VL: EIVMTQSPATLSVSPGERATLSCRASQSIGTSLHWYQQKPGQAPRLLIKFASRSITGIPARFSGSGSGTEFTLTISSLQSEDFAVYYCQQSPGFPPTFGQGTKLEIKR
notes: Humanized (CDR grafted) variant of hamster TSLPR-012; human kappa and human IgG1 or IgG4(S228P,L235E) appear only as embodiments

EC50 [4]: 0.0097 µg/mL
Kd [5]: 0.87 nM
IC50 DC assay (example 7), TARC secretion [6]: 0.046 µg/mL
IC50 proliferation (example 4) [6]: 0.037 µg/mL
IC50 [2]: 0.0104 µg/mL
EC50 [7]: 0.0133 µg/mL
IC50, IL-5 release in Th2 polarization assay [8]: 1.62 nM
IC50, IL-13 release in Th2 polarization assay [8]: 2.57 nM
IC50, TARC secretion by human dendritic cells stimulated with TSLP [8]: 2.4 nM
average IC50, mast cell cytokine production (IL-13, IL-5, GMCSF) [8]: 0.04 to 0.06 nM
B4: TSLPR-012_141, CDR grafted (antibody, V domains shown)
VH: B3 VH
VL: DIQMTQSPSSLSASVGDRVTITCRASQSIGTSLHWYQQKPGKAPKLLIKFASRLQSGVPSRFSGSGSGTDFTLTISSLQPEDFATYYCQQSPGFPPTFGQGTKLEIKR
notes: as for B3

EC50 [4]: 0.0108 µg/mL
Kd [5]: 0.5 nM
IC50 DC assay (example 7), TARC secretion [6]: 0.042 µg/mL
IC50 proliferation (example 4) [6]: 0.026 µg/mL
IC50 [2]: 0.0134 µg/mL
EC50 [7]: 0.0157 µg/mL
B5: TSLPR-012_75, CDR grafted (antibody, V domains shown)
VH: B3 VH
VL: EIVLTQSPDFQSVTPKEKVTITCRASQSIGTSLHWYQQKPDQSPKLLIKFASRSISGVPSRFSGSGSGTDFTLTINSLEAEDAATYYCQQSPGFPPTFGQGTKLEIKR
notes: as for B3

EC50 [4]: 0.0086 µg/mL
Kd [5]: 2.45 nM
IC50 DC assay (example 7), TARC secretion [6]: 0.086 µg/mL
IC50 proliferation (example 4) [6]: 0.034 µg/mL
IC50 [2]: 0.0122 µg/mL
EC50 [7]: 0.0118 µg/mL
B6: TSLPR-012_166, CDR grafted (antibody, V domains shown)
VH: QVQLQESGPGLVKPSQTLSLTCTVSGFSITTSGYYWSWIRQHPGKGLEWIGYIGYNSKTYYSPSLKSRVTISRDTSKNQFSLKLSSVTAADTAVYYCARSLYGGYKDAFDSWGQGTLVTVSS
VL: B4 VL with Q38H, K39R, K42E, A43T, L54S, Q55I
notes: as for B3

From patent US20120020988A1 (Hoffmann-La Roche, published 2012)
